From US20250092133A1 (Amgen, published 2025) come the findings set out here.

Changes are numbered by the printed parent chain.

The target in assay [1] is T1, Hu CDH3 Dom3 mu (aa 328-440), human/mouse chimeric CDH3 on CHO cells (chimeric hu/mu). Nature of the assay: flow cytometry, transfected CHO cells; crude undiluted periplasmic scFv extract; anti-FLAG M2 + anti-mouse IgG Fcγ-PE; control PBS/2% FCS. The procedure:
(§1) Cells transfected with human or murine CDH3, or with the chimeric human/mouse CDH3 molecules (see Example 1) were stained with crude, undiluted periplasmic extract containing scFv binding to human/macaque CDH3. […] As negative control, cells were incubated with PBS/2% FCS instead of the periplasmic extract. The samples were measured by flow cytometry.
On the technique in general: In flow cytometry, cells or beads pass a laser one at a time.

Assay [2] concerns the target T2, human CDH3 (P-cadherin) on cells (human, UniProt P22223 108-829).
T2 construct: The entry includes signal peptide and pro-peptide; extracellular domain D1 starts at aa 108; also called hu CDH3; hu CDH-3
The assay is described as above. As to the method:
as §1

Assay [3] addresses T3, Hu CDH3 Dom2 mu (aa 216-327), human/mouse chimeric CDH3 on CHO cells (chimeric hu/mu).
T3 chain: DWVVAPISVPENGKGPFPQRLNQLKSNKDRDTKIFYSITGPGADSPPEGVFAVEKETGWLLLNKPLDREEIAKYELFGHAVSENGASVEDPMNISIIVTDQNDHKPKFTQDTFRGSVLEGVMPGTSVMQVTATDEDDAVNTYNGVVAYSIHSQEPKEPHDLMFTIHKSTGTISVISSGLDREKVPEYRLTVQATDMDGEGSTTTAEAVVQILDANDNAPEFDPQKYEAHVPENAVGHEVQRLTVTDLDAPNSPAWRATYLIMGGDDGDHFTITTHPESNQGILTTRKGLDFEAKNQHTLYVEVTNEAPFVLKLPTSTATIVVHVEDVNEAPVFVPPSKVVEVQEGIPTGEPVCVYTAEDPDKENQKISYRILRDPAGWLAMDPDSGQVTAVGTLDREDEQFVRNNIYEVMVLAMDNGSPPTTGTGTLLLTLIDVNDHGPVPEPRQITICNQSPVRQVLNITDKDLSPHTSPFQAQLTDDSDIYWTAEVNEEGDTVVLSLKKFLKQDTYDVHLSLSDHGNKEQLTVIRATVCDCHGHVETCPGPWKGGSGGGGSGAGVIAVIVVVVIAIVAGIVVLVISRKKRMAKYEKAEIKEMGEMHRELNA
Described as above. As to the method:
as §1

The target of assay [4] is T4, Hu CDH3 Dom1C mu (aa 180-215), human/mouse chimeric CDH3 on CHO cells (chimeric hu/mu, UniProt P22223 108-681 (human entry)).
T4 chain: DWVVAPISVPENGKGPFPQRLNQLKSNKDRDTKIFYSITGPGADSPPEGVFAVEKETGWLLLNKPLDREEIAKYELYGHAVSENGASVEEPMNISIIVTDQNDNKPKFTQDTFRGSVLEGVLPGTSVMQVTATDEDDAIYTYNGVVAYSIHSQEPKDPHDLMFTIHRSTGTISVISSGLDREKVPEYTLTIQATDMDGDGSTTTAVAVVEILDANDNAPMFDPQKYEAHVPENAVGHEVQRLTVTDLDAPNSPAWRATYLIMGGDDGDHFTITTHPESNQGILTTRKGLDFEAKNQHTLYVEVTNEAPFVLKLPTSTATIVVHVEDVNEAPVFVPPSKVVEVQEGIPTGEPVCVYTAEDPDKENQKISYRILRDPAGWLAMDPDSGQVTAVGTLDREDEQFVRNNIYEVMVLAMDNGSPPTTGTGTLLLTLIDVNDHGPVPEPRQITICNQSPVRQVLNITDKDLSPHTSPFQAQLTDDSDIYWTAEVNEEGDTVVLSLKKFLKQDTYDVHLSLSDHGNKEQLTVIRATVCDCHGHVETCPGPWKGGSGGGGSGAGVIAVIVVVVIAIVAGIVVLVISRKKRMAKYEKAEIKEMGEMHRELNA
Described as above. The procedure:
as §1

Assay [5] deals with T5, Hu CDH3 Dom1B mu (aa 144-179), human/mouse chimeric CDH3 on CHO cells (chimeric hu/mu, UniProt P22223 108-681 (human entry)).
T5 chain: T4 chain with A52T, V53I, T57S, N63H, K64M, E70K, A72V, Y77F, E90D, N104H
Nature of the assay: flow cytometry, transfected CHO cells; crude periplasmic scFv extract; anti-FLAG M2 + anti-mouse IgG Fcγ-PE. As to the method: as §1

Assay [6] addresses Hu CDH3 Dom3B mu (aa 364-403), human/mouse chimeric CDH3 on CHO cells (chimeric hu/mu, UniProt P22223 108-681 (human entry)). In words: flow cytometry, transfected CHO cells; crude undiluted periplasmic scFv extract; anti-FLAG M2 + anti-mouse IgG Fcγ-PE; control PBS/2% FCS. As to the method:
as §1

In a further assay the target is T6, murine CDH3 on cells (mouse, UniProt P10287 100-822).
T6 construct: negative control; also called mouse CDH3
T6 sequence: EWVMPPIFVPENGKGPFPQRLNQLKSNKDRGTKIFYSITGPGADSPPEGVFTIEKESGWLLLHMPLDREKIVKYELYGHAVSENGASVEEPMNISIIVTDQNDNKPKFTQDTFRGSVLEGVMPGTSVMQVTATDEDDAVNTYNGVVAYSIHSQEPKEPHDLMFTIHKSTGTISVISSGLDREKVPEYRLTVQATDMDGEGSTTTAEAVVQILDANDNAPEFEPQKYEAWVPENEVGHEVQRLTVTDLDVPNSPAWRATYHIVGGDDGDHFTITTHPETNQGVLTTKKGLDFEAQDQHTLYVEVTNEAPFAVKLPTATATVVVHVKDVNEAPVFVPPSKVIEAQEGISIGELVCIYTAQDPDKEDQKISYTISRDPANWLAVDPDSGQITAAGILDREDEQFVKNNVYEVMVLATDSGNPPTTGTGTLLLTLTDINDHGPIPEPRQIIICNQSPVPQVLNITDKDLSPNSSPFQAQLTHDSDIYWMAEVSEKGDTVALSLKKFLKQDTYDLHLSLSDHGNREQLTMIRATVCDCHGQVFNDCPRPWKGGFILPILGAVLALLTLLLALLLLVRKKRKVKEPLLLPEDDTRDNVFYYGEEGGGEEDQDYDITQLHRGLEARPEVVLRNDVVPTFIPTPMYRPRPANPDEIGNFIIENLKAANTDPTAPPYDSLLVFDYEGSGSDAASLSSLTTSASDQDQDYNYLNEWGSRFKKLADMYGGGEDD
Nature of the assay: flow cytometry, transfected CHO cells; crude periplasmic scFv extract; anti-FLAG M2 + anti-mouse IgG Fcγ-PE. The procedure:
as §1

Assay [7] deals with T7, Hu CDH3 Dom3C mu (aa 404-440), human/mouse chimeric CDH3 on CHO cells (chimeric hu/mu, UniProt P22223 108-681 (human entry)). The description is as above. As to the method: as §1
The target of assay [8] is T1, Hu CDH3 Dom3 mu (aa 328-440), …. Described as above. The procedure:
as §1

The target in assay [9] is Hu CDH3 Dom3A mu (aa 328-363), human/mouse chimeric CDH3 on CHO cells (chimeric hu/mu, UniProt P22223 108-681 (human entry)). The description is as above. The procedure: as §1
In assay [10] the target is T7, Hu CDH3 Dom3C mu (aa 404-440), …. Nature of the assay: flow cytometry, transfected CHO cells; crude undiluted periplasmic scFv extract; anti-FLAG M2 + anti-mouse IgG Fcγ-PE; control PBS/2% FCS. As to the method: as §1

B1: CDH3-6 scFv (scFv)
scFv: EVQLVEESGPELVKPGASVKISCKASGYAFSSSWMNWVKQRPGKGLEWIGRIYPGDGETKYNGKFKGKATLTADKSSSTAYMQLSSLTSEDSAVYFCARQRDYGALYAMDYWGQGTSVTVSSGGGGSGGGGSGGGGSELVMTQSPASLSASVGETVTITCRASDDIYSYLAWYQQKQGKSPQLLVYNAKTLAEGVPSRFSGSGSGTQFSLKINSLQPEDFGTYYCQNHYVTPFTFGAGTKLEIK
In the case of B1, the binding result is listed as “binds” in [1]; “binds” in assay [2]; “binds” in [3]; “binds” in assay [4]; “no binding” in assay [5].

B2: CDH3-5 (scFv)
scFv: EVQLVEQSGAELVKPGASVKISCKASGYAFSTSWMNWVKQRPGKGLEWIGRIYPGDGETKYNGKFKGKATLTADKSSSTAYMQLSSLTSEDSAVYFCARQRDYGALYALDYWGQGTRVTVSSGGGGSGGGGSGGGGSELMMTQTPASLSASVGETVTFTCRASENIYSYLAWYQQKQGKSPQLLVYNAKTLAEGVPSRFSGSGSGTQFSLKINSLQPEDFGSYYCQHHYVPPYTFGGGTKLEIK
notes: Used as crude periplasmic extract and detected through a FLAG tag; also called CDH3-5 scFv
Regarding B2, the binding result in [2] is listed as “binds”; in assay [3], “binds”; in [4], “binds”; in assay [5], “no binding”.

B3: CDH3-32 scFv (scFv)
scFv: EVQLVEQPGAELVRPGTSVKLSCKASGYTFTSYWMHWVKQRPGQGLEWIGVIDTSDSYTIYNQKFKGKATLTVDTSSSTAYMQLSSLTSEDSSVYFCARSGPGYFDVWGQGTTVTVSSGGGGSGGGGSGGGGSELQMTQSPASLSASVGETVTITCRASENIYSYLAWYQQKQGKSPQLLVYNAKTLAEGVPSRFSGSGSGTQFSLKINSLQPEDFGSYYCQHHYGTPYTFGGGTKLEIK
For the molecule B3, the binding result is on record as “binds” in assay [6]; “binds” in assay [2]; “binds” in assay [3]; “no binding” in the assay with murine CDH3 on cells; “no binding” in assay [7]; “no binding” in assay [8]. Besides, the binding result in assay [9] is listed as “no binding”.

B4: CDH3-33 scFv (scFv)
scFv: EVQLVEQPGAELVRPGTSVKLSCKASGYTFTSYWMHWVKQRPGQGLEWIGVIDTSDSYTIYNQKFKGKATLTVDTSSSTAYMQLSSLTSGDSSVYFCARSGPGYFDVWGQGTTVTVSSGGGGSGGGGSGGGGSELVMTQSPASLSASVGETVTITCRASGNIHNYLAWYQQKQGKSPQLLVYNAKTLADGVPSRFSGSGSGTQYSLKINSLQPEDFGTYYCQHFWSTPYTFGGGTKLEIK
As to B4, the binding result is given as “binds” in assay [10]; “binds” in assay [6]; “binds” in assay [2]; “binds” in assay [3]; “no binding” with murine CDH3 on cells; “no binding” in assay [8].

B5: CDH3-7 (scFv)
scFv: EVQLVEQSGAELVKPGASVKISCKASGYAFSSSWMNWVKQRPGKGLEWIGRIYPGDGETKYNGKFKGKATLTADKSSSTAYMQLSTLTSEDSAVYFCARQRDYGALYAMDYWGQGTSVTVSSGGGGSGGGGSGGGGSELQMTQSPASLSASVGETVTITCRLSENIYSYLAWYRQKEGESPQLLVYNSKTLAEGVPSRFSGSGSGTQFSLKINSLQPEDFGNYYCQNHYGFPFTFGAGTKLEIK
notes: Used as crude periplasmic extract and detected through a FLAG tag; also called CDH3-7 scFv
Regarding B5, in assay [1], the binding result is listed as “binds”.
